How the values were obtained:
[1] = target: the molecule itself; test: SEC
[2] = target: Pex1/Pex6 complex (Saccharomyces cerevisiae, UniProt P24004); test: ATPase assay

Row | Kd [2] [nM] | Binder | binding result [1]
1 | – | Pex1-FLAG (recombinant) (natural protein, S. cerevisiae, UniProt P24004 1-1043, looked up) MTTTKRLKFENLRIQFSNAIVGNFLRLPHSIINVLESTNYAIQEFGIAVHSHNSDIPIVHLGWDGHDSGSSENVVLINPVLATVYDLNQKSPLVDLYIQRYDHTHLATEVYVTPETSDDWEIIDANAMRFQNGEILHQTRIVTPGETLICYLEGIVTKFKIDRVEPSMKSARITDGSLVVVAPKVNKTRLVKAEYGHSNKTILKNGAIQLLKKVILRSTVCKMDFPKDNLFVVYISDGAQLPSQKGYASIVKCSLRQSKKSDSDNKSVGIPSKKIGVFIKCDSQIPENHIALSSHLWDAFFTHPMNGAKIKLEFLQMNQANIISGRNATVNIKYFGKDVPTKSGDQYSKLLGGSLLTNNLILPTEQIIIEIKKGESEQQLCNLNEISNESVQWKVTQMGKEEVKDIIERHLPKHYHVKETGEVSRTSKDEDDFITVNSIKKEMVNYLTSPIIATPAIILDGKQGIGKTRLLKELINEVEKDHHIFVKYADCETLHETSNLDKTQKLIMEWCSFCYWYGPSLIVLDNVEALFGKPQANDGDPSNNGQWDNASKLLNFFINQVTKIFNKDNKRIRVLFSGKQKTQINPLLFDKHFVSETWSLRAPDKHARAKLLEYFFSKNQIMKLNRDLQFSDLSLETEGFSPLDLEIFTEKIFYDLQLERDCDNVVTRELFSKSLSAFTPSALRGVKLTKETNIKWGDIGALANAKDVLLETLEWPTKYEPIFVNCPLRLRSGILLYGYPGCGKTLLASAVAQQCGLNFISVKGPEILNKFIGASEQNIRELFERAQSVKPCILFFDEFDSIAPKRGHDSTGVTDRVVNQLLTQMDGAEGLDGVYILAATSRPDLIDSALLRPGRLDKSVICNIPTESERLDILQAIVNSKDKDTGQKKFALEKNADLKLIAEKTAGFSGADLQGLCYNAYLKSVHRWLSAADQSEVVPGNDNIEYFSINEHGRREENRLRLKTLLQQDVVHETKTSTSAASELTAVVTINDLLEACQETKPSISTSELVKLRGIYDRFQKDRNGEMPNGENSIDIGSRLSLM | binds
2 | 185 | Pex15 cytosolic domain (protein) MAASEIMNNLPMHSLDSSLRDLLNDDLFIESDESTKSVNDQRSEVFQECVNLFIKRDIKDCLEKMSEVGFIDITVFKSNPMILDLFVSACDIMPSFTKLGLTLQSEILNIFTLDTPQCIETRKIILGDLSKLLVINKFFRCCIKVIQFNLTDHTEQEEKTLELESIMSDFIFVYITKMRTTIDVVGLQELIEIFIFQVKVKLHHKKPSPNMYWALCKTLPKLSPTLKGLYLSKDVSIEDAILNSIDNKIQKDKAKSKGKQRGVKQKIHHFHEPMLHNSSEEQVKVEDAFNQRTSTDSRLQSTGTAPRKKNNDITVLAGSFWAVLKHHFTRS | –

Source: publication PMC4355278 (Journal of molecular biology, 2015)
